Experimental data reported in patent US8173604B2, “Inhibition of Skp2-cyclin a interaction” (Albert Einstein College of Medicine of Yeshiva University, priority 2006, dated 2012).

Assays:
E2F1-cyclin A binding = target: T1, E2F1-cyclin A binding (Homo sapiens, UniProt P20248); test: GST pull-down, competition for E2F1-cyclin A binding
T1 construct: expressed in transfected cells; host or cells: 293T (cyclin A/Cdk2); The GST-E2F1 plasmid was a gift and the fusion was purified on GSH beads
Protocol: (§1) GST pull down, p27 ubiquitylation assay, and cyclin A kinase assay. GST fusion proteins were purified on GSH-beads (Amersham), which were then incubated with transfected cell extracts for 1 hour in 4° C. with rocking. The beads were washed three times with lysis buffer (25 mM Hepes pH 7.6, 100 mM KCl, 0.1 mM EDTA, 10 mM MgCl2, 0.1% NP-40, 10% glycerol, 1 mM DTT) before analysis by SDS-PAGE and Western blotting.
Whether Skp2 competes with another RxL protein, E2F1, for cyclin A binding (Krek et al., 1994) was next determined.

cyclin A/Cdk2 = target: T2, cyclin A/Cdk2 (Homo sapiens, UniProt P20248+P24941); test: In vitro cyclin A/Cdk2 kinase assay with purified proteins (GST-Rb-C substrate); assay type: biochemical; details: 80 nM protein added to p27-containing kinase reaction
T2 construct: made in house; host or cells: insect cells (baculovirus)
Protocol: Cyclin A/Cdk2 kinase assays were performed as described previously (Ji et al., 2004). Both immuno-purified myc-cyclin A/Cdk2 on beads and GST-purified and eluted GST-cyclin A/Cdk2 (baculovirus vectors for GST-cyclin A and Cdk2 were provided by Brian Dynlacht) were used. The amounts of purified proteins were determined by comparing them with known amounts of standard proteins in Coomassie blue stained gels. Phosphorylation of GST-Rb-C was quantified with the ImageQuant software. The Ki of various proteins was determined by non-linear least squares analysis. […] Actual amounts of proteins in 7.5×10^4 HeLa cells were then determined (for example, the amounts of p27, Skp2, and cyclin A in 7.5×10^4 HeLa cells were determined to be about 0.1, 0.2, and 0.1 pmoles, respectively, at 14 hours post-replating; and about 0.01, 0.1, and 1.0 pmoles, respectively, at 19 hours post-replating).
For kinase reactions, insect cell-produced and purified GST-cyclin A/Cdk2 was used at a concentration of ˜3 nM, which was the lowest concentration that yielded readily detectible phosphorylation of GST-Rb-C here. […] Phosphorylation of Rb-C was measured and plotted, and the Ki of these various proteins were determined by non-linear least squares analysis (FIG. 7F). […]
It was then determined whether the 4060 peptide could prevent Skp2N from protecting cyclin A/Cdk2 from inhibition by p27. […]

p27-cyclin A interaction = target: T3, p27-cyclin A interaction (Homo sapiens, UniProt P20248); test: GST pull-down, blocking of p27-cyclin A interaction; assay type: binding; details: GST-p27, myc-cyclin A/Cdk2 transfected 293T cell extracts
T3 construct: expressed in transfected cells; host or cells: 293T (cyclin A/Cdk2)
Protocol: as §1
Skp2-cyclin A interaction and p27-cyclin A interaction can be blocked by distinct peptides. An important aspect of the RxL-1-IP interaction is that it can be blocked by a short RxL peptide (Adams et al., 1996). If the Skp2-cyclin A/Cdk2 interaction and the p27-cyclin A/Cdk2 interaction are mediated by different sequences on both sides of the interaction, as shown above, it can be predicted that the RxL peptide should not block Skp2-cyclin A interaction. […] Peptide concentrations required for their respective blocking activities were similar for RxL and 4060 peptides.
Skp2 competes with p27/p21, but not E2F1, for binding to cyclin A. Whether the apparently distinct Skp2-cyclin A interaction and p27-cyclin A interaction are competitive against each other was next evaluated. […] Whether the competition between Skp2 and p27/p21 for cyclin A binding could be observed in vivo with endogenous proteins under physiological conditions was next determined. […]

[1] = target: T4, GST-p21 binding to cyclin A/Cdk2 (Homo sapiens, UniProt P20248); test: GST pull-down, competition with GST-p21 for binding to cyclin A/Cdk2; details: increasing amounts of Skp2N
T4 construct: expressed in transfected cells; host or cells: 293T (cyclin A/Cdk2); The GST-p21 plasmid was a gift and the fusion was purified on GSH beads
Protocol: as §1
Skp2 competes with p27/p21, but not E2F1, for binding to cyclin A. Whether the apparently distinct Skp2-cyclin A interaction and p27-cyclin A interaction are competitive against each other was next evaluated. […] Skp2N also competed with GST-p21 for binding to cyclin A/Cdk2 (FIG. 6A right). Whether the competition between Skp2 and p27/p21 for cyclin A binding could be observed in vivo with endogenous proteins under physiological conditions was next determined. Since abundant amounts of cyclin A are already bound by Skp2 and very little is bound by p27 or p21 in various cell lines (unpublished results), this issue was addressed from the other direction of competition by testing whether p27/p21 could compete Skp2 away from cyclin A. For this purpose, we treated U2OS cells with actinomycin D to activate p53, which led to a significant increase in p21 protein levels.

B1: Skp2N: Skp2 N-terminus (N terminal 100 residues), GST cleaved (protein)
chain: MHVFKTPGPADAMHRKHLQEIPDLSSNVATSFTWGWDSSKTSELLSGMGVSALEKEEPDSENIPQELLSNLGHPESPPRKRLKSKGSDKDFVIVRRPKLN
modifications: left off: a dimerising Fc or GST
notes: Skp2 N-terminus (N terminal 100 residues), GST cleaved
Effect on E2F1-cyclin A binding (E2F1-cyclin A binding): did not affect
Protection of cyclin A/Cdk2 from inhibition by p27 (cyclin A/Cdk2): completely reversed
Blocking of p27-cyclin A interaction (p27-cyclin A interaction): progressively diminished
Competition with GST-p21 for binding to cyclin A/Cdk2 [1]: competed
